Results as given in patent US7074560B2, “Purification of tissue plasminogen activator (tPA)” (Dyax Corp., priority 1996, dated 2006).
Positions of bridges follow the written chain, without caps; N, C: chain ends. No end group written: not given here.

Biological target: tPA (Homo sapiens, UniProt P00750)
Test: 15-amino acid segment bound to a chromatographic support: tPA binding
Conditions: initial studies
Source text: As noted above, almost all of the variegation in amino acid positions used in building the CMTI library occurred between two cyteines at positions 3 and 10 of CMTI-I (see Table 3). In the parental CMTI protein, these cysteines form disulfide bonds with other cysteine residues elsewhere in the protein (see SEQ ID NO: 1), however with the successful isolation of affinity ligands from the CMTI library, a secondary library was conceptualized which was based on variegating a truncated 15-amino acid segment of the isolate #109 (see amino acids 1–15 of SEQ ID NO: 12). If the C3 and C10 cysteines of these members formed a disulfide bond, then a constrained loop having tPA binding properties might be obtained.

Sequence of tPA (P00750 36-562): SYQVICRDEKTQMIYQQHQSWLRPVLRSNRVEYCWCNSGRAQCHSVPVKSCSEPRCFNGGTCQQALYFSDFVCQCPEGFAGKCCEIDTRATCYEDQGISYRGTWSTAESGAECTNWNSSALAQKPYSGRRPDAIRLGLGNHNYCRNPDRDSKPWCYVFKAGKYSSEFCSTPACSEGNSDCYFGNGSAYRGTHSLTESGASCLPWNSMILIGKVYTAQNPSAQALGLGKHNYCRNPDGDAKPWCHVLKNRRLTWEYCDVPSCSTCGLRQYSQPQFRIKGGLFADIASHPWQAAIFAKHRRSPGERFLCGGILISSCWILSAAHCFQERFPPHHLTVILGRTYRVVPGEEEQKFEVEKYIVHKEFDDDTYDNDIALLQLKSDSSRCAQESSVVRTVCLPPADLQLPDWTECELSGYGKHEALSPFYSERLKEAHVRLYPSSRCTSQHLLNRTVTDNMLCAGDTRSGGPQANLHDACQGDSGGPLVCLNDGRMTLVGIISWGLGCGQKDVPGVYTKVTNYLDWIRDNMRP

## 15-amino acid segment derived from affinity ligand isolate #109: truncated 15-amino acid segment of isolate #109 (amino acids 1–15 of SEQ ID NO: 12), C3–C10 disulfide loop (RLCPKTDLGCMKDSD; disulfide 3-10)
  binding of the immobilized C3–C10 loop to tPA: bound to tPA
